Data on one molecule can be found in PMC6755732, “Structural, Biochemical, and In Vivo Characterization of MtrR-Mediated Resistance to Innate Antimicrobials by the Human Pathogen Neisseria gonorrhoeae”.

Data set [1] deals with T1, MtrR (Neisseria gonorrhoeae, UniProt P39897 1-210). Put plainly: fluorescence polarization; 1 mM taurocholate; FP: 20 mM Tris-HCl pH 8.0, 100 mM NaCl, 2.5% glycerol, 1 nM DNA, temperature not stated; EMSA: 20 mM Tris pH 8.0, 200 mM NaCl, 10% glycerol, 1 mM TCEP, 1 ug poly(dI-dC), room temperature, 2% agarose TAE. The settings on record: protein: recombinant; tags: His6 removed by thrombin; chain copies: 2. A general note: Polarisation of emitted light reports the rotation of a fluorescent probe.

The target in data set [2] is MtrR(W136L) (Neisseria gonorrhoeae, UniProt P39897 1-210, W136L). Put plainly: fluorescence polarization; no bile salt; nM Kd within 5-fold of WT (137, 184 or 187 nM, assignment unclear); FP: 20 mM Tris-HCl pH 8.0, 100 mM NaCl, 2.5% glycerol, 1 nM DNA, temperature not stated; EMSA: 20 mM Tris pH 8.0, 200 mM NaCl, 10% glycerol, 1 mM TCEP, 1 ug poly(dI-dC), room temperature, 2% agarose TAE. The settings on record: protein: recombinant; tags: N-terminal His6 removed by TEV; chain copies: 2.

Data set [3] has as its target MtrR(R176E) (Neisseria gonorrhoeae, UniProt P39897 1-210, R176E). The description is as above. To be noted: protein: recombinant; tags: N-terminal His6 removed by TEV; chain copies: 2.
For data set [4], the target named is MtrR(R176A) (Neisseria gonorrhoeae, UniProt P39897 1-210, R176A). The description is as above. The settings on record: protein: recombinant; tags: N-terminal His6 removed by TEV; chain copies: 2.
Data set [5] concerns the target T1, MtrR. As to the kind of experiment: fluorescence polarization; 1 mM glycocholate; FP: 20 mM Tris-HCl pH 8.0, 100 mM NaCl, 2.5% glycerol, 1 nM DNA, temperature not stated; EMSA: 20 mM Tris pH 8.0, 200 mM NaCl, 10% glycerol, 1 mM TCEP, 1 ug poly(dI-dC), room temperature, 2% agarose TAE. The settings on record: protein: recombinant; tags: His6 removed by thrombin; chain copies: 2.

Data set [6] has as its target T1, MtrR. As to the kind of experiment: fluorescence polarization; no bile salt; FP: 20 mM Tris-HCl pH 8.0, 100 mM NaCl, 2.5% glycerol, 1 nM DNA, temperature not stated; EMSA: 20 mM Tris pH 8.0, 200 mM NaCl, 10% glycerol, 1 mM TCEP, 1 ug poly(dI-dC), room temperature, 2% agarose TAE. The settings on record: protein: recombinant; tags: His6 removed by thrombin; chain copies: 2.

In data set [7] the target is T1, MtrR. Put plainly: fluorescence polarization; no CAPS; FP: 20 mM Tris-HCl pH 8.0, 100 mM NaCl, 2.5% glycerol, 1 nM DNA, temperature not stated; EMSA: 20 mM Tris pH 8.0, 200 mM NaCl, 10% glycerol, 1 mM TCEP, 1 ug poly(dI-dC), room temperature, 2% agarose TAE. The settings on record: protein: recombinant; tags: His6 removed by thrombin; chain copies: 2.

B1: mtrC (mtrCDE) operator 27-mer, fluorescein (dsDNA)
DNA 1: TTTTTATCCGTGCAATCGTGTATGTAT
DNA 2: ATACATACACGATTGCACGGATAAAAA
In the case of B1, the Kd in data set [1] was 0.02 ± 0.006 µM; in data set [5] it was 0.021 ± 0.0008 µM; in data set [6] it was 0.018 ± 0.003 µM; in data set [7] it was ~0.0036 µM. Also, the binding result in data set [2], in data set [3] and in data set [4] was “binds” in each case.

For orientation: Kd means the equilibrium constant for the complex coming apart.
